Measurements reported in article PMC10030467 (Nature Communications, 2023).
Positions count from the first letter of the chain named. In names and notes the source's numbering stands. Several values for one entry are separate records, joined by “and”; a condition that tells them apart may be missing. Identical values can stand only once. One block for each molecule: values may come before it.

What was measured:
[1] = target: T1, TRIM72 (full-length; also MG53) (Homo sapiens, UniProt Q6ZMU5); assay: microscale thermophoresis; assay type: binding; settings: 50 mM Tris pH 8.0, 80 mM NaCl, 0.05% Tween 20, 0.3 mM TCEP; room temperature; GFP-labelled protein
T1 construct: full-length residues 2-477; E. coli Rosetta (DE3), His-Sumo cut by Ulp1; GFP-labelled for MST, FLAG-tagged for PIP-Strips; dimer
T1 sequence (Q6ZMU5 2-477): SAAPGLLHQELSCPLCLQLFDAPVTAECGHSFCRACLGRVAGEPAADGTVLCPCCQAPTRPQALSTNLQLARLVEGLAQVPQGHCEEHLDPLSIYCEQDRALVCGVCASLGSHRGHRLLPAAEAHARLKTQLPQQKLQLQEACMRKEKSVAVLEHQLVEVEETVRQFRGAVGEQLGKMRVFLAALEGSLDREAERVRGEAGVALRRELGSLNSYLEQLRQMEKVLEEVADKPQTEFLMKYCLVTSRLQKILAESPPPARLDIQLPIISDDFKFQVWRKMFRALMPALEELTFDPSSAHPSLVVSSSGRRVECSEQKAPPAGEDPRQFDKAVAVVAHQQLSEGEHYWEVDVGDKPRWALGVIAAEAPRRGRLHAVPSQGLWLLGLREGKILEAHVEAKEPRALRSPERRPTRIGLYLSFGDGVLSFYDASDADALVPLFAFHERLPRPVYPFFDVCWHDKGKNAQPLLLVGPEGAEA

[2] = target: T2, TRIM72 (full-length; also MG53) (Homo sapiens, UniProt Q6ZMU5, R169A/R180A/R198A); assay: microscale thermophoresis; assay type: binding
T2 construct: full-length residues 2-477; E. coli Rosetta (DE3), His-Sumo cut by Ulp1; GFP-labelled for MST, FLAG-tagged for PIP-Strips; dimer
T2 sequence (Q6ZMU5 2-477 R169A/R180A/R198A): T1 sequence (Q6ZMU5 2-477) with R168A, R179A, R197A

[3] = target: T3, CC-SPRY (Homo sapiens, UniProt Q6ZMU5); assay: microscale thermophoresis; assay type: binding; settings: 50 mM Tris pH 8.0, 80 mM NaCl, 0.05% Tween 20, 0.3 mM TCEP; room temperature; GFP-labelled protein
T3 construct: gene TRIM72; coiled-coil plus SPRY; E. coli; GFP-labelled for MST; dimer
T3 sequence (Q6ZMU5 122-477): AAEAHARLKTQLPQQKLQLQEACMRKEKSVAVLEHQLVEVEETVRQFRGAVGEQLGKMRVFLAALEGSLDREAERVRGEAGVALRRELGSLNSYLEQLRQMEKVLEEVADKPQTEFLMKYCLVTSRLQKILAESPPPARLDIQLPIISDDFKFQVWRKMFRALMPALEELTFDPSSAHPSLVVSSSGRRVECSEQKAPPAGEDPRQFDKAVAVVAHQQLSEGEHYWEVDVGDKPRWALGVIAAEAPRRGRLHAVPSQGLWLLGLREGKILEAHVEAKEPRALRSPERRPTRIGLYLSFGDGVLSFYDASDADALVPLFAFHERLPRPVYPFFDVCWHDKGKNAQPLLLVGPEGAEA

[4] = target: T4, SPRY domain (Homo sapiens, UniProt Q6ZMU5); assay: microscale thermophoresis; assay type: binding; settings: 50 mM Tris pH 8.0, 80 mM NaCl, 0.05% Tween 20, 0.3 mM TCEP; room temperature; GFP-labelled protein
T4 construct: gene TRIM72; SPRY domain, residues 278-477; E. coli; GFP-labelled for MST; monomer
T4 sequence (Q6ZMU5 278-477): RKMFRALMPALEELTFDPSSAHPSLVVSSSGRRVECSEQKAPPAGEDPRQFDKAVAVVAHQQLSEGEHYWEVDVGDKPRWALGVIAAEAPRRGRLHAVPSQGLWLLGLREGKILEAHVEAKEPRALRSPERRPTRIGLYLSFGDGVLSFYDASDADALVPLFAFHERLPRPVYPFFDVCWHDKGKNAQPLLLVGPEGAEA

[5] = target: T5, coiled-coil domain alone (121-277) (Homo sapiens, UniProt Q6ZMU5); assay: microscale thermophoresis; assay type: binding; settings: 50 mM Tris pH 8.0, 80 mM NaCl, 0.05% Tween 20, 0.3 mM TCEP; room temperature; GFP-labelled protein
T5 construct: gene TRIM72; coiled-coil domain, residues 121-277; E. coli; GFP-labelled for MST
T5 sequence (Q6ZMU5 121-277): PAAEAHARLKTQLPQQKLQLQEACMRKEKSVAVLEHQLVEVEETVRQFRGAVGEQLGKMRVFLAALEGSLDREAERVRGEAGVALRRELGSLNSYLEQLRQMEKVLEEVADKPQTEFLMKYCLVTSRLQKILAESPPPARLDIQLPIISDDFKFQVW

[6] = target: KAP1/TRIM28 (Homo sapiens) (UniProt Q13263); settings: cited from earlier work
[7] = target: the molecule itself; assay: AUC + SEC-MALS; deletion constructs of TRIM72 in solution; 20 mM Tris-HCl pH 8.0, 200 mM NaCl, 0.3 mM TCEP
[8] = target: the molecule itself; assay: AUC; sedimentation velocity, lower protein concentrations of the series 1-50 μM; 20 mM Tris-HCl pH 8.0, 200 mM NaCl, 0.3 mM TCEP, 20 °C; monomers to dimer
[9] = target: the molecule itself; assay: AUC; sedimentation velocity, increasing protein concentration (1, 2, 10, 20, 50 μM); 20 mM Tris-HCl pH 8.0, 200 mM NaCl, 0.3 mM TCEP, 20 °C; SEDPHAT self-association; dimers to tetramer (and hexamer)
[10] = target: the molecule itself; assay: cross-linking; disulfide bonds by oxidation: about 20 μM protein with 0-0.3% H2O2, 4 °C, 30 min, 20 mM Tris-HCl pH 8.0, 200 mM NaCl, 0.3 mM TCEP; non-reducing PAGE
[11] = target: the molecule itself; assay: SEC-MALS; point mutants, 100 μL at 1 mg/mL; Superdex 200 increase, 20 mM Tris-HCl pH 8.0, 200 mM NaCl, 0.3 mM TCEP

Kd [1]: ~10 µM | Kd [2]: ~38 µM | Kd [3]: ~10 µM | Kd [4]: ~4.7 µM | Kd [5]: ~19.6 µM
Molecule: N[C@@H](COP(=O)(O)O)C(=O)O [phospho-L-serine]

Molecule: KAP1/TRIM28 (from UniProt Q13263)
Kd [6]: 10 µM

B1: TRIM72^ΔRING (84-477) (domain or fragment, human, UniProt Q6ZMU5-1 84-477, looked up)
chain: GHCEEHLDPLSIYCEQDRALVCGVCASLGSHRGHRLLPAAEAHARLKTQLPQQKLQLQEACMRKEKSVAVLEHQLVEVEETVRQFRGAVGEQLGKMRVFLAALEGSLDREAERVRGEAGVALRRELGSLNSYLEQLRQMEKVLEEVADKPQTEFLMKYCLVTSRLQKILAESPPPARLDIQLPIISDDFKFQVWRKMFRALMPALEELTFDPSSAHPSLVVSSSGRRVECSEQKAPPAGEDPRQFDKAVAVVAHQQLSEGEHYWEVDVGDKPRWALGVIAAEAPRRGRLHAVPSQGLWLLGLREGKILEAHVEAKEPRALRSPERRPTRIGLYLSFGDGVLSFYDASDADALVPLFAFHERLPRPVYPFFDVCWHDKGKNAQPLLLVGPEGAEA
notes: TRIM72, human, residues 84-477 (B-box, coiled-coil, SPRY); also called RING deletion; source: E. coli Rosetta (DE3), purified; not shown: His-Sumo, N-terminal, cleaved
stoichiometry N [7]: 2

B2: TRIM72^ΔSPRY (2-287) (domain or fragment, human, UniProt Q6ZMU5-1 2-287, looked up)
chain: SAAPGLLHQELSCPLCLQLFDAPVTAECGHSFCRACLGRVAGEPAADGTVLCPCCQAPTRPQALSTNLQLARLVEGLAQVPQGHCEEHLDPLSIYCEQDRALVCGVCASLGSHRGHRLLPAAEAHARLKTQLPQQKLQLQEACMRKEKSVAVLEHQLVEVEETVRQFRGAVGEQLGKMRVFLAALEGSLDREAERVRGEAGVALRRELGSLNSYLEQLRQMEKVLEEVADKPQTEFLMKYCLVTSRLQKILAESPPPARLDIQLPIISDDFKFQVWRKMFRALMPA
notes: TRIM72, human, residues 2-287 (RING, B-box, coiled-coil); source: E. coli Rosetta (DE3), purified; not shown: His-Sumo, N-terminal, cleaved
stoichiometry N [7]: 2

B3: full-length human TRIM72 protein (2-477) (natural protein, UniProt Q6ZMU5-1 2-477, looked up)
chain: T1 sequence (Q6ZMU5 2-477)
notes: TRIM72 (MG53), human, residues 2-477; open reading frame of GenBank NM_001008274.4; A dimer in solution at low concentration; the RING domain is not seen in the crystal structure although the full-length protein was crystallised; also called MG53; Tripartite Motif Protein 72; source: E. coli Rosetta (DE3), purified (nickel column, Source Q, Superdex 200 increase); not shown: His-Sumo, N-terminal, …
stoichiometry N [8]: 2 | Kd [9]: ~0.78 mM | stoichiometry N [9]: 4 and 6

B4: TRIM72 C242S (natural protein, human, UniProt Q6ZMU5-1 2-477, looked up)
chain: T1 sequence (Q6ZMU5 2-477) with C241S
notes: TRIM72, human, residues 2-477, point mutant; source: E. coli Rosetta (DE3), purified; not shown: His-Sumo, N-terminal, cleaved
binding result [10]: binds

B5: TRIM72 R180E (natural protein, human, UniProt Q6ZMU5-1 2-477, looked up)
chain: T1 sequence (Q6ZMU5 2-477) with R179E
notes: as for B4
stoichiometry N [11]: 2

B6: TRIM72 R220A (natural protein, human, UniProt Q6ZMU5-1 2-477, looked up)
chain: T1 sequence (Q6ZMU5 2-477) with R219A
notes: as for B4
stoichiometry N [11]: 2

B7: TRIM72 I95A (natural protein, human, UniProt Q6ZMU5-1 2-477, looked up)
chain: T1 sequence (Q6ZMU5 2-477) with I94A
notes: TRIM72, human, residues 2-477, point mutant in the B-box; also called I95A mutant; source: E. coli Rosetta (DE3), purified; not shown: His-Sumo, N-terminal, cleaved
Kd [9]: ~2.2 mM

B8: TRIM72 R198A (natural protein, human, UniProt Q6ZMU5-1 2-477, looked up)
chain: T1 sequence (Q6ZMU5 2-477) with R197A
notes: as for B4
stoichiometry N [11]: 2

B9: TRIM72 C144S (natural protein, human, UniProt Q6ZMU5-1 2-477, looked up)
chain: T1 sequence (Q6ZMU5 2-477) with C143S
notes: as for B4
binding result [10]: binds

B10: TRIM72 R198E (natural protein, human, UniProt Q6ZMU5-1 2-477, looked up)
chain: T1 sequence (Q6ZMU5 2-477) with R197E
notes: as for B4
stoichiometry N [11]: 2

B11: TRIM72 R220E (natural protein, human, UniProt Q6ZMU5-1 2-477, looked up)
chain: T1 sequence (Q6ZMU5 2-477) with R219E
notes: as for B4
stoichiometry N [11]: 2

B12: TRIM72^ΔRING-B-box (122-477) (domain or fragment, human, UniProt Q6ZMU5-1 122-477, looked up)
chain: T3 sequence (Q6ZMU5 122-477)
notes: TRIM72, human, residues 122-477 (coiled-coil and SPRY); also called CC-SPRY; source: E. coli Rosetta (DE3), purified; not shown: His-Sumo, N-terminal, cleaved
stoichiometry N [7]: 2
